Results as given in paper doi:10.1101/351726.

Assays:
[1] = target: full-length MyD88 fused to GFP at the N-terminus (human) (UniProt Q99836); experiment: photon counting histogram
[2] = target: full-length MyD88 fused to GFP at the N-terminus (human) (UniProt Q99836); experiment: single-molecule fluorescence brightness analysis

stoichiometry N [1]: > 100 proteins
Kd [2]: 120 nM
stoichiometry N [2]: > 80 GFP
Substance: full-length MyD88 fused to GFP at the N-terminus (from UniProt Q99836 1-296) (natural protein)
